This note sets out measurements from patent US6194559.

Data set [1] relates to ABF1 (Arabidopsis thaliana). The experiment in a line: cell_activity. The note with it: yeast lacZ; no activity without ABRE.
Data set [2] relates to ABF2 (Arabidopsis thaliana). The experiment in a line: cell_activity. As to conditions: yeast lacZ.

In data set [1], Em1a trimer reporter displayed an activity (fold over control) of 6. Also, in data set [2], the activity (fold over background) stood at 2.
